{"source": "patent US20260242735A1", "about": "(UNIVERSIT T BASEL, published 2026)", "binders": {"B1": {"name": "Refmab #2 (antibody, V domains shown)", "VH": "QVQLVQSGAEVKKPGSSVKVSCKASGGTFSDYAISWVRQAPGQGLEWMGRIIPILGVADYAQKFQGRVTITADKSTRTAYMELSSLRSEDTAVYYCARNWADAFDIWGQGTMVTVSS", "VL": "DIQLTQSPSSLSASVGDRVTITCRASQGISSVLAWYQQKPGKAPKLLIYDASSLESGVPSRFSGSGSGTDFTLTISSLQPEDFATYYCQQFDSSITFGQGTKLEIK", "notes": "The alanine scan used IgG or Fab"}}, "experiment_in_all_cases": "flow cytometry, alanine scan", "key": {"human CD33 A329S": {"biological_target": "human CD33 A329S (human, UniProt P20138 18-364)", "procedure": "(§1) An alanine scan on human CD33 was performed to the determine the residues on CD33 that are involved in binding to the antibodies investigated. […] Briefly, a mutation library of CD33 was created by high-throughput, site-directed mutagenesis. Each residue was individually mutated to alanine, with alanine codons mutated to serine. The mutant library was arrayed in 384-well microplates and transiently transfected into HEK293-T. Following transfection, cells were incubated with the indicated antibodies (IgG or Fab) at concentrations pre-determined using an independent immunofluorescence titration curve on wild type CD33. […] Binding of each antibody to each mutant clone was determined in duplicates. For each point, background fluorescence was subtracted from the raw data, which were then normalized to antibody reactivity with wild type CD33.\n(§2) Critical residues for antibody binding (outlined in dark grey) were residues whose mutations led to a binding of the test Abs of less than 20%. Additional secondary residues (outlined in light grey) were identified that led to a binding of the test Abs of between 20 and 40% as compared to the wild type CD33."}, "human CD33 M334A": {"biological_target": "human CD33 M334A (human, UniProt P20138 18-364)", "procedure": "as §1, §2"}, "human CD33 G347A": {"biological_target": "human CD33 G347A (human, UniProt P20138 18-364)", "sequence (P20138 18-364 G347A limits assumed)": "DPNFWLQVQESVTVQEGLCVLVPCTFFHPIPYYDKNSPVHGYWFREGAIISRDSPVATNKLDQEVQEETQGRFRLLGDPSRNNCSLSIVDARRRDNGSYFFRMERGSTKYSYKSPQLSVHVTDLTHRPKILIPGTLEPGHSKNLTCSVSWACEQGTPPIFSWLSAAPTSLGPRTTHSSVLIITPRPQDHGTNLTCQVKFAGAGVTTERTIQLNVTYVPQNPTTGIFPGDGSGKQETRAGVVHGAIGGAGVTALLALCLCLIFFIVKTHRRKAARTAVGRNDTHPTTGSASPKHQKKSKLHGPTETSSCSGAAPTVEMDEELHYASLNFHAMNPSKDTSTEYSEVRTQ", "procedure": "as §1, §2"}, "human CD33 P319A": {"biological_target": "human CD33 P319A (human, UniProt P20138 18-364)", "procedure": "as §1, §2"}, "human CD33 E357A": {"biological_target": "human CD33 E357A (human, UniProt P20138 18-364)", "sequence (P20138 18-364 E357A limits assumed)": "as the sequence (P20138 18-364 G347A limits assumed) above, with A330G, E340A counted along it", "procedure": "as §1, §2"}, "human CD33 V361A": {"biological_target": "human CD33 V361A (human, UniProt P20138 18-364)", "procedure": "as §1, §2"}, "human CD33 S351A": {"biological_target": "human CD33 S351A (human, UniProt P20138 18-364)", "procedure": "as §1, §2"}, "human CD33 S324A": {"biological_target": "human CD33 S324A (human, UniProt P20138 18-364)", "procedure": "as §1, §2"}, "human CD33 C325A": {"biological_target": "human CD33 C325A (human, UniProt P20138 18-364)", "procedure": "as §1, §2"}, "human CD33 S323A": {"biological_target": "human CD33 S323A (human, UniProt P20138 18-364)", "sequence (P20138 18-364 S323A limits assumed)": "as the sequence (P20138 18-364 G347A limits assumed) above, with S306A, A330G counted along it", "procedure": "as §1, §2"}, "human CD33 Y358A": {"biological_target": "human CD33 Y358A (human, UniProt P20138 18-364)", "procedure": "as §1, §2"}, "human CD33 H346A": {"biological_target": "human CD33 H346A (human, UniProt P20138 18-364)", "sequence (P20138 18-364 H346A limits assumed)": "as the sequence (P20138 18-364 G347A limits assumed) above, with H329A, A330G counted along it", "procedure": "as §1, §2"}, "human CD33 V332A": {"biological_target": "human CD33 V332A (human, UniProt P20138 18-364)", "procedure": "as §1, §2"}, "human CD33 T331A": {"biological_target": "human CD33 T331A (human, UniProt P20138 18-364)", "procedure": "as §1, §2"}, "human CD33 P330A": {"biological_target": "human CD33 P330A (human, UniProt P20138 18-364)", "procedure": "as §1, §2"}, "human CD33 A341S": {"biological_target": "human CD33 A341S (human, UniProt P20138 18-364)", "procedure": "as §1, §2"}, "human CD33 T320A": {"biological_target": "human CD33 T320A (human, UniProt P20138 18-364)", "sequence (P20138 18-364 T320A limits assumed)": "as the sequence (P20138 18-364 G347A limits assumed) above, with T303A, A330G counted along it", "procedure": "as §1, §2"}, "human CD33 S326A": {"biological_target": "human CD33 S326A (human, UniProt P20138 18-364)", "procedure": "as §1, §2"}, "human CD33 S355A": {"biological_target": "human CD33 S355A (human, UniProt P20138 18-364)", "procedure": "as §1, §2"}, "human CD33 F345A": {"biological_target": "human CD33 F345A (human, UniProt P20138 18-364)", "procedure": "as §1, §2"}, "human CD33 E336A": {"biological_target": "human CD33 E336A (human, UniProt P20138 18-364)", "procedure": "as §1, §2"}, "human CD33 S342A": {"biological_target": "human CD33 S342A (human, UniProt P20138 18-364)", "sequence (P20138 18-364 S342A limits assumed)": "as the sequence (P20138 18-364 G347A limits assumed) above, with S325A, A330G counted along it", "procedure": "as §1, §2"}, "human CD33 E360A": {"biological_target": "human CD33 E360A (human, UniProt P20138 18-364)", "procedure": "as §1, §2"}, "human CD33 N344A": {"biological_target": "human CD33 N344A (human, UniProt P20138 18-364)", "procedure": "as §1, §2"}, "human CD33 Q364A": {"biological_target": "human CD33 Q364A (human, UniProt P20138 18-363)", "procedure": "as §1, §2"}, "human CD33 G327A": {"biological_target": "human CD33 G327A (human, UniProt P20138 18-364)", "procedure": "as §1, §2"}, "human CD33 D353A": {"biological_target": "human CD33 D353A (human, UniProt P20138 18-364)", "procedure": "as §1, §2"}, "human CD33 T322A": {"biological_target": "human CD33 T322A (human, UniProt P20138 18-364)", "procedure": "as §1, §2"}, "human CD33 S359A": {"biological_target": "human CD33 S359A (human, UniProt P20138 18-364)", "procedure": "as §1, §2"}, "human CD33 R362A": {"biological_target": "human CD33 R362A (human, UniProt P20138 18-364)", "procedure": "as §1, §2"}, "human CD33 A328S": {"biological_target": "human CD33 A328S (human, UniProt P20138 18-364)", "procedure": "as §1, §2"}, "human CD33 E337A": {"biological_target": "human CD33 E337A (human, UniProt P20138 18-364)", "sequence (P20138 18-364 E337A limits assumed)": "as the sequence (P20138 18-364 G347A limits assumed) above, with E320A, A330G counted along it", "procedure": "as §1, §2"}, "human CD33 H339A": {"biological_target": "human CD33 H339A (human, UniProt P20138 18-364)", "sequence (P20138 18-364 H339A limits assumed)": "as the sequence (P20138 18-364 G347A limits assumed) above, with H322A, A330G counted along it", "procedure": "as §1, §2"}, "human CD33 E333A": {"biological_target": "human CD33 E333A (human, UniProt P20138 18-364)", "sequence (P20138 18-364 E333A limits assumed)": "as the sequence (P20138 18-364 G347A limits assumed) above, with E316A, A330G counted along it", "procedure": "as §1, §2"}, "human CD33 L343A": {"biological_target": "human CD33 L343A (human, UniProt P20138 18-364)", "procedure": "as §1, §2"}, "human CD33 E321A": {"biological_target": "human CD33 E321A (human, UniProt P20138 18-364)", "procedure": "as §1, §2"}, "human CD33 K352A": {"biological_target": "human CD33 K352A (human, UniProt P20138 18-364)", "procedure": "as §1, §2"}, "human CD33 T356A": {"biological_target": "human CD33 T356A (human, UniProt P20138 18-364)", "procedure": "as §1, §2"}, "human CD33 T363A": {"biological_target": "human CD33 T363A (human, UniProt P20138 18-364)", "procedure": "as §1, §2"}, "human CD33 G318A": {"biological_target": "human CD33 G318A (human, UniProt P20138 18-364)", "sequence (P20138 18-364 G318A limits assumed)": "as the sequence (P20138 18-364 G347A limits assumed) above, with G301A, A330G counted along it", "procedure": "as §1, §2"}, "human CD33 N349A": {"biological_target": "human CD33 N349A (human, UniProt P20138 18-364)", "procedure": "as §1, §2"}, "human CD33 Y340A": {"biological_target": "human CD33 Y340A (human, UniProt P20138 18-364)", "sequence (P20138 18-364 Y340A limits assumed)": "as the sequence (P20138 18-364 G347A limits assumed) above, with Y323A, A330G counted along it", "procedure": "as §1, §2"}, "human CD33 M348A": {"biological_target": "human CD33 M348A (human, UniProt P20138 18-364)", "sequence (P20138 18-364 M348A limits assumed)": "as the sequence (P20138 18-364 G347A limits assumed) above, with A330G, M331A counted along it", "procedure": "as §1, §2"}, "human CD33 P350A": {"biological_target": "human CD33 P350A (human, UniProt P20138 18-364)", "sequence (P20138 18-364 P350A limits assumed)": "as the sequence (P20138 18-364 G347A limits assumed) above, with A330G, P333A counted along it", "procedure": "as §1, §2"}, "human CD33 D335A": {"biological_target": "human CD33 D335A (human, UniProt P20138 18-364)", "procedure": "as §1, §2"}, "human CD33 T354A": {"biological_target": "human CD33 T354A (human, UniProt P20138 18-364)", "procedure": "as §1, §2"}, "human CD33 L338A": {"biological_target": "human CD33 L338A (human, UniProt P20138 18-364)", "sequence (P20138 18-364 L338A limits assumed)": "as the sequence (P20138 18-364 G347A limits assumed) above, with L321A, A330G counted along it", "procedure": "as §1, §2"}}}
{"binder": "B1", "values": [{"measurement": "Mean % WT Binding", "setting": "human CD33 A329S", "result": "116 % of WT"}, {"measurement": "Mean % WT Binding", "setting": "human CD33 M334A", "result": "106 % of WT"}, {"measurement": "Mean % WT Binding", "setting": "human CD33 G347A", "result": "85.9 % of WT"}, {"measurement": "Mean % WT Binding", "setting": "human CD33 P319A", "result": "100 % of WT"}, {"measurement": "Mean % WT Binding", "setting": "human CD33 E357A", "result": "104 % of WT"}, {"measurement": "Mean % WT Binding", "setting": "human CD33 V361A", "result": "99.4 % of WT"}, {"measurement": "Mean % WT Binding", "setting": "human CD33 S351A", "result": "109 % of WT"}, {"measurement": "Mean % WT Binding", "setting": "human CD33 S324A", "result": "106 % of WT"}, {"measurement": "Mean % WT Binding", "setting": "human CD33 C325A", "result": "109 % of WT"}, {"measurement": "Mean % WT Binding", "setting": "human CD33 S323A", "result": "119 % of WT"}, {"measurement": "Mean % WT Binding", "setting": "human CD33 Y358A", "result": "110 % of WT"}, {"measurement": "Mean % WT Binding", "setting": "human CD33 H346A", "result": "118 % of WT"}, {"measurement": "Mean % WT Binding", "setting": "human CD33 V332A", "result": "91.6 % of WT"}, {"measurement": "Mean % WT Binding", "setting": "human CD33 T331A", "result": "91.3 % of WT"}, {"measurement": "Mean % WT Binding", "setting": "human CD33 P330A", "result": "119 % of WT"}, {"measurement": "Mean % WT Binding", "setting": "human CD33 A341S", "result": "116 % of WT"}, {"measurement": "Mean % WT Binding", "setting": "human CD33 T320A", "result": "112 % of WT"}, {"measurement": "Mean % WT Binding", "setting": "human CD33 S326A", "result": "109 % of WT"}, {"measurement": "Mean % WT Binding", "setting": "human CD33 S355A", "result": "105 % of WT"}, {"measurement": "Mean % WT Binding", "setting": "human CD33 F345A", "result": "102 % of WT"}, {"measurement": "Mean % WT Binding", "setting": "human CD33 E336A", "result": "117 % of WT"}, {"measurement": "Mean % WT Binding", "setting": "human CD33 S342A", "result": "117 % of WT"}, {"measurement": "Mean % WT Binding", "setting": "human CD33 E360A", "result": "101 % of WT"}, {"measurement": "Mean % WT Binding", "setting": "human CD33 N344A", "result": "88.1 % of WT"}, {"measurement": "Mean % WT Binding", "setting": "human CD33 Q364A", "result": "109 % of WT"}, {"measurement": "Mean % WT Binding", "setting": "human CD33 G327A", "result": "122 % of WT"}, {"measurement": "Mean % WT Binding", "setting": "human CD33 D353A", "result": "94.4 % of WT"}, {"measurement": "Mean % WT Binding", "setting": "human CD33 T322A", "result": "111 % of WT"}, {"measurement": "Mean % WT Binding", "setting": "human CD33 S359A", "result": "102 % of WT"}, {"measurement": "Mean % WT Binding", "setting": "human CD33 R362A", "result": "119 % of WT"}, {"measurement": "Mean % WT Binding", "setting": "human CD33 A328S", "result": "102 % of WT"}, {"measurement": "Mean % WT Binding", "setting": "human CD33 E337A", "result": "116 % of WT"}, {"measurement": "Mean % WT Binding", "setting": "human CD33 H339A", "result": "99.5 % of WT"}, {"measurement": "Mean % WT Binding", "setting": "human CD33 E333A", "result": "108 % of WT"}, {"measurement": "Mean % WT Binding", "setting": "human CD33 L343A", "result": "111 % of WT"}, {"measurement": "Mean % WT Binding", "setting": "human CD33 E321A", "result": "117 % of WT"}, {"measurement": "Mean % WT Binding", "setting": "human CD33 K352A", "result": "113 % of WT"}, {"measurement": "Mean % WT Binding", "setting": "human CD33 T356A", "result": "111 % of WT"}, {"measurement": "Mean % WT Binding", "setting": "human CD33 T363A", "result": "108 % of WT"}, {"measurement": "Mean % WT Binding", "setting": "human CD33 G318A", "result": "106 % of WT"}, {"measurement": "Mean % WT Binding", "setting": "human CD33 N349A", "result": "110 % of WT"}, {"measurement": "Mean % WT Binding", "setting": "human CD33 Y340A", "result": "106 % of WT"}, {"measurement": "Mean % WT Binding", "setting": "human CD33 M348A", "result": "115 % of WT"}, {"measurement": "Mean % WT Binding", "setting": "human CD33 P350A", "result": "117 % of WT"}, {"measurement": "Mean % WT Binding", "setting": "human CD33 D335A", "result": "117 % of WT"}, {"measurement": "Mean % WT Binding", "setting": "human CD33 T354A", "result": "111 % of WT"}, {"measurement": "Mean % WT Binding", "setting": "human CD33 L338A", "result": "107 % of WT"}]}
